Measured values reported in the supplement of paper PMC9732359.
± gives the uncertainty stated by the source.

Test: protein stability index of a GFP-peptide fusion (yeast GPS) (PSI 1-4); higher = more stable; sorted into four equal gates, so the index is relative within each strain
Settings: doa10∆
How it was run: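 The protein stability index combines read frequencies across sorting gates, each weighted by its gate number and then summed. To obtain those frequencies, a pooled yeast library of GFP fusions to tiled 17-residue yeast protein peptides, on a plasmid also expressing Cherry, was grown to mid-log phase in leucine-free medium. The cells were sorted into four equal gates by GFP/Cherry ratio before plasmid amplification by PCR and Illumina sequencing.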
With KYIVKASSGPRYIVGVR [RPT4] the protein stability index was 1.87 ± 0.096. Work on KYMVKGGLSGEESIKIY [UBP6] yielded a protein stability index of 2.32 ± 0.13. Work on KYQKALHYLKKFKHIDD [SRP72] yielded a protein stability index of 2.04 ± 0.1. KYREGQVLFQGLIYSFN [POP1] gave a protein stability index of 2.46 ± 0.12. KYRPETAAEKKERLTKE [RPL8A] showed a protein stability index of 3.08 ± 0.081. LADDLITKMLASDESLL [RPN2] gave a protein stability index of 1.94 ± 0.11. In the case of LAEIKKTPLLKQYLSAS [RPL6B], the protein stability index is reported as 1.54 ± 0.038. LAFAKLVHSEYLINGKR [SRP68] gave a protein stability index of 2.18 ± 0.11. With LAFKKNEMLLKRVTKVK [MTW1] the protein stability index was 1.77 ± 0.065. For LAGMDVEDALDKDSTKE [FAS2], the protein stability index was 3.43 ± 0.27. LAIDNMYILGMCVSKGN [YCG1] gave a protein stability index of 2.19 ± 0.069. LAKYRDAGKIDKHLYHV [RPL19A] showed a protein stability index of 3.3 ± 0.18. LALENGEITKTENEKFI [NUT1] showed a protein stability index of 3.28 ± 0.15. LALMTAHSLSPKDYIKK [CDC53] gave a protein stability index of 3.1 ± 0.06. LAMEAILNELEVFIGRV [YJR042W/NUP85] gave a protein stability index of 2.59 ± 0.12. In the case of LANWFLEVYASGNPNAT [YML031W/NDC1], the protein stability index is reported as 2.03 ± 0.055. LAQTLKLWRKIARLYSC [RRI2] showed a protein stability index of 1.2 ± 0.07. In the case of LARACAAQTNATFLKLA [RPT5], the protein stability index is reported as 2.76 ± 0.13. Work on LASEVGDPALVYKFMSL [ECM29] yielded a protein stability index of 2.32 ± 0.069. With LATYCPRVQGFYVPQAR [GRR1] the protein stability index was 2.44 ± 0.078. With LAVLALVIVKKGEQELE [RPS6A] the protein stability index was 1.61 ± 0.038. LAYRNYWTQYLGLFIHK [YJL039C/NUP192] showed a protein stability index of 1.94 ± 0.057. Work on LCKTKMVCETDVPSEDD [RPO21] yielded a protein stability index of 2.99 ± 0.071. LDALTRHIKSKHEDLSL [RPN4] showed a protein stability index of 2.54 ± 0.062. LDDPEAVSKDPLLTKRK [DIS3] gave a protein stability index of 2.9 ± 0.11. LDDTTIPVGLMAQENSM [MCD1] showed a protein stability index of 1.5 ± 0.071. With LDIGLQRTTTGARVFGA [RPL5] the protein stability index was 1.35 ± 0.073. With LDIKRVGSENVECTISI [SNF12] the protein stability index was 2.27 ± 0.067. Work on LDKDSSQSSAAAGASVD [RPN6] yielded a protein stability index of 3.47 ± 0.11. Work on LDNSKMDYHFIFSYLQF [RGR1] yielded a protein stability index of 2.45 ± 0.061. For LDSLMKTTRLLLIIRSL [YJL039C/NUP192], the protein stability index was 1.63 ± 0.044. Sequence LDSNNNNSNSNNNDNNN [SWI1] has a protein stability index of 2.65 ± 0.035. Work on LEACIVRIMKAKRNLPH [CDC53] yielded a protein stability index of 1.5 ± 0.087. LEAKRKVSSAEYYAKKR [RPL16A] showed a protein stability index of 3.06 ± 0.14. Sequence LEALRQNYRLDGRSFDQ [RRP45] has a protein stability index of 2.43 ± 0.11. LECQLFPQGLNIVMDSK [SSN8] showed a protein stability index of 1.74 ± 0.2. LEDDSLLSYPIKLDRWL [RPN12] gave a protein stability index of 3.12 ± 0.072. With LEDFENFKGLAKEKERM [YIL149C/MLP2] the protein stability index was 3.41 ± 0.075. LEDLFSYRNGMASYMLN [YJR042W/NUP85] showed a protein stability index of 1.6 ± 0.071. For LEEEFVSNSEILKPFEK [RPT2], the protein stability index was 2.85 ± 0.074. For LEEKILAKKTHKQELQD [SMC4], the protein stability index was 2.95 ± 0.093. For LEEQQQLEDESSRLEFV [YML103C/NUP188], the protein stability index was 3.43 ± 0.084. With LEGETDPLRIAMKELAE [RPO26] the protein stability index was 3.49 ± 0.21. LEGITTTIDSLNAELES [SMC3] showed a protein stability index of 1.57 ± 0.088. Work on LEHDVEYRPFSKKVLEC [DIS3] yielded a protein stability index of 3.4 ± 0.18. With LEIAKDFQPTELFDILS [IRR1] the protein stability index was 3.07 ± 0.13. For LEIASSIDCLLILILVI [SWI1], the protein stability index was 1.98 ± 0.07. With LEKIHSIEVQSLPEFFT [SWI3] the protein stability index was 2.69 ± 0.074. Sequence LEKKGFSEVYEYNRLKV [LIN1] has a protein stability index of 3.34 ± 0.16. Work on LERFNKRADISKRRITE [SMC1] yielded a protein stability index of 3.14 ± 0.14. LESFQAVYNKLTGKQIV [RPS7A] showed a protein stability index of 1.68 ± 0.055. With LESSITDAGVLALKLEL [YJL039C/NUP192] the protein stability index was 1.57 ± 0.06. For LETILEEFRNLAALNVW [SSN2], the protein stability index was 2.9 ± 0.11. LETLFNRWHSESWANQL [FAS2] gave a protein stability index of 2.81 ± 0.055. LFGNNNTNNINNSSSGM [YGL172W/NUP49] gave a protein stability index of 3.38 ± 0.16. For LFHSCTRIQYVDFACCT [GRR1], the protein stability index was 2.56 ± 0.12. In the case of LFKTLFKKLTKDIFRYM [RPB2], the protein stability index is reported as 1.94 ± 0.061. In the case of LFNESFIMASVGKYDKA [SRP72], the protein stability index is reported as 3 ± 0.29. LFRAIYLYCLDNNITEM [YCG1] gave a protein stability index of 2.08 ± 0.052. Work on LFYFDSSFRPCPLSQQF [BRR2] yielded a protein stability index of 2.47 ± 0.072. With LGDKELWPVAIGLIALS [YJR042W/NUP85] the protein stability index was 1.57 ± 0.17. LGDMENNLEKYPFRYKT [RTT102] gave a protein stability index of 3.44 ± 0.073. LGHKELKVRKGHIAKLM [RPB2] showed a protein stability index of 2.54 ± 0.066. LGKFKNIIASPLSAGFN [SIN4] showed a protein stability index of 1.88 ± 0.06. Work on LGKVRFANYKLLLKKII [SRB4] yielded a protein stability index of 1.71 ± 0.063. For LGKWYSKEDYETLKRDR [ARP7], the protein stability index was 3.31 ± 0.15. In the case of LGLGIAFAGSKNDEVLG [RPN1], the protein stability index is reported as 3.09 ± 0.3. In the case of LGNTVSTQPSFAWSKPS [YGR119C/NUP57], the protein stability index is reported as 2.62 ± 0.067. Sequence LGNVIVPNILSLDMNSM [NUT1] has a protein stability index of 2.16 ± 0.06. In the case of LGRDYPIEVDEELLQLF [IRR1], the protein stability index is reported as 2.19 ± 0.24. LGRVRNHFIFNVESAGA [RPC40] showed a protein stability index of 1.38 ± 0.062. With LGSKKELGISLEHPYGK [SNU114] the protein stability index was 3.08 ± 0.11. Work on LGVEDITLIDSASLHLN [RET1] yielded a protein stability index of 2.03 ± 0.063. For LGWIHTQTEELKFMAAS [PRP8], the protein stability index was 2.59 ± 0.087. LHGNAKKAAEEAGVTDV [FAS2] gave a protein stability index of 3.42 ± 0.12. With LHIHGSSNPLGITGNLD [COB] the protein stability index was 2.92 ± 0.087. In the case of LHPQLHEVQYQESSSTL [SIN4], the protein stability index is reported as 2.28 ± 0.049. LHPYVPSSKPQEQVYPD [SRB8] gave a protein stability index of 2.81 ± 0.24. With LHVVSKSSIEKDPSPEI [SIN4] the protein stability index was 2.91 ± 0.054. LIAVYYSFGGLLMRLEG [RPB8] gave a protein stability index of 2.69 ± 0.059. LIELLTQMDGFDQSTNV [RPT3] gave a protein stability index of 2.33 ± 0.088. With LIETVFVKNIRMLSFED [RPN9] the protein stability index was 2.19 ± 0.044. With LIFIACNDEDKDLETLY [ECM29] the protein stability index was 3.11 ± 0.084. For LIIVTRKNYMHVKNFGF [YML031W/NDC1], the protein stability index was 1.22 ± 0.042. With LIKNGKKVTAFVPNDGC [RPS23A] the protein stability index was 3.03 ± 0.11. Sequence LIKQVPRLLGPQLSKAG [RPL1A] has a protein stability index of 1.98 ± 0.068. Work on LIKTLSTLHMLGYTHIA [RPP1] yielded a protein stability index of 2.49 ± 0.081. For LINEILLKSNDPLLSLY [RGR1], the protein stability index was 2.04 ± 0.046. Work on LIQQVPPGLDALVKPET [CDC53] yielded a protein stability index of 3.02 ± 0.12. For LIRLQMEKLDAKLNHLK [SWI3], the protein stability index was 3.06 ± 0.17. Sequence LISGKAGVLNGTLEYGT [RET1] has a protein stability index of 2.83 ± 0.056. Work on LISLIMTTWRKLYTKEL [YMR129W/POM152] yielded a protein stability index of 2.35 ± 0.092. Work on LISRMIFIATQLEKKIR [BRR2] yielded a protein stability index of 1.75 ± 0.075. Work on LKALSHHYNPKTKKLNL [BRR2] yielded a protein stability index of 2.46 ± 0.088. LKEILNVAKNMKTPSLT [RPO21] showed a protein stability index of 3.33 ± 0.12. With LKESYSQKHNGRILKWL [CDC53] the protein stability index was 2.01 ± 0.059. LKETVIPSLANNGNNST [POP6] gave a protein stability index of 2.41 ± 0.058. In the case of LKFAVQVDKVTKEKVNG [RPL26A], the protein stability index is reported as 3.23 ± 0.21. Work on LKFNSTEYRGTLVSTDN [SMX3] yielded a protein stability index of 1.74 ± 0.04. Work on LKFVKVRVRTTKIPQIG [RPB2] yielded a protein stability index of 2.51 ± 0.073. Sequence LKGLNGFPSAPQPLFME [YMR153W/NUP53] has a protein stability index of 2.53 ± 0.067. For LKGRVVEVCLADLQGSE [RPS1A], the protein stability index was 2.65 ± 0.062.
